Assays:
[1] = target: T1, C-terminal GFP2-tagged β2-adrenergic receptor (β2-AR/GFP2) (human, UniProt P07550 1-413); experiment: MST; lysate of HEK-293 cells with β2-AR/GFP2 kept constant as fluorescent target, P3 titrated in 1:1 dilutions, no agonist; MST buffer with 0.05% Tween 20, 25 °C; EC50 from bound fraction; details: one partner purified
T1 construct: human β2-adrenergic receptor; not shown: GFP2, C-terminal, kept

[2] = target: T1, C-terminal GFP2-tagged β2-adrenergic …; experiment: MST; lysate of HEK-293 cells with β2-AR/GFP2 kept constant as fluorescent target, P3 titrated in 1:1 dilutions, in the presence of 10 µM isoproterenol; MST buffer with 0.05% Tween 20, 25 °C; EC50 from bound fraction; details: one partner purified

B1: P3, nanobody-derived peptide (NDP) of Nb71 (peptide)
peptide: EDTAVYYCNANWDLLSD
notes: 17 aa stretch of the nanobody Nb71 (amino acid residues 88-104, includes CDR3), picked by computational peptide scanning; numbers count on Nb71; source: synthetic peptide, custom-synthesized at Biomatik Corporation
For B1, the EC50 [1] was 58.2 ± 13.6 µM and the EC50 [2] was 3.57 ± 0.81 µM.

From paper PMC6851183, “Computational design and characterization of nanobody-derived peptides that stabilize the active conformation of the β2-adrenergic receptor (β2-AR)” (Scientific Reports, 2019)
